# Test results reported in the RNAGym collection of RNA variant scans (doi:10.1073/pnas.2313332121).
# This sample holds only a part of the variants without activity.
# B1: TPR 5TU (parent)
# chain: GGAUCUUCUCGAUCUAACAAAAAAGACAAAUCUGCCACAAAGCUUGAGAGCAUCUUCGGAUGCAGAGGCGGCAGCCUUCGGUGGCGCGAUAGCGCCAACGUUCUCAACUAUGACACGCAAAACGCGUGCUCCGUUGAAUGGAGUUUAUCAUG
# Variants of: B1
# Assay: polymerase ribozyme fitness, log enrichment relative to wild type (log ratio); higher = more active; in vitro selection for triplet polymerase activity
# In short: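 Mutant libraries for each subunit of a heterodimeric triplet polymerase ribozyme were made by PCR and then transcribed. Each library underwent one round of in vitro selection in triplicate: annealing with a biotinylated primer, the partner subunit and triplets, frozen incubation at −7 °C, gel excision of extended constructs, streptavidin-bead capture and RT-PCR. Input and output libraries were Illumina-sequenced, and only genotypes with ≥10 input reads and ≥1 read per output were kept. Fitness is the logarithm, base 2, of genotype enrichment over wild-type enrichment, computed from inverse-variance-weighted replicate averages.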
row,Variant,polymerase ribozyme fitness (log ratio)
1,A19U C54G C79A U82C G84A A89C G92C U144C,≤ -4.2
2,A17U G80C C93A U101G,≤ -4.2
3,C18G A41U A47C A49G G86A U104G,-3.44
4,A19U C75U U139G G140A U151G,≤ -4.2
5,C18G C57G G80U C87A U127C G128C,≤ -4.2
6,A19U G42C G86U A110G C116A G117U,≤ -4.2
7,A19U A52G G94C,-1.72
8,A19U A30C G42A C43G C54G G70U U77C C96G A107G,≤ -4.2
9,C18U G88C C103A G112C G143C,≤ -4.2
10,A19C A20G G136A A147G,-2.36
11,A19U G83U,-0.798
12,A19U G83A,-0.555
13,C18A C69G C96U C103A,-2.88
14,A19U A23G G84A U101G A115C,-3.62
15,C18G A52C C69G C75G G94A C95U A113U,≤ -4.2
16,A19G A41C G59A G62A A73U C118G A150U,≤ -4.2
17,C18U C54G G59A C93A G136U,≤ -4.2
18,C18G A19G A20U C57U G68C G141A,≤ -4.2
19,A19U C87U,-0.845
20,A17U G25C A29U G48C U53A G70U C93G C129A C131A A150C,≤ -4.2
21,A19G G58C G59C,0.18
22,A19U A21U C72G A89C C96G G143A,≤ -4.2
23,A19G G86A,-1.36
24,C18G U31G A52G G80C U101C U127G,≤ -4.2

row,Variant,polymerase ribozyme fitness (log ratio)
1,A17U C105A,-1.28
2,A19C A24U C57G C75U G92U C118A,-0.536
3,A17U U33A U45A C57G G70C C87A A98U,≤ -4.2
4,A19U G50A,-1.63
5,A19U G50U,-0.0269
6,A17U A23U C36G C57A G70U U78C C85U C103G A147C C149U,≤ -4.2
7,A20C A41C U55C C93G C99U U102G,≤ -4.2
8,C18U C57A A115C G143U U148A,≤ -4.2
9,A19U G42U A113G A121U G124C U148A,≤ -4.2
10,A20C A28C A37U G42U G71A C85U C99G A106G C131G,≤ -4.2
11,C18U A121U,-1.1
12,A19G G50U U55A C96U U145G,-2.18
13,A19U A23C A91U,≤ -4.2
14,A19G C96U U101G,-0.801
15,C18U C76A C95U C99A U101G A107U C149G,≤ -4.2
16,A19G C32A A47C G59C C85U A106C G143C,≤ -4.2
17,A19G A40C C85G A147C,-3.28
18,C18U A28C C87G G124U U139G U146G,≤ -4.2
19,C18A C27A A40U C87U C118U,-4.17
20,C18U U56A U90G C99U A120C C132U U134C,≤ -4.2
21,A19C A52U,-1.43
22,A20C A24G A40C C69A C75G C87U G88C U102C G124A G133C U135C A147C,≤ -4.2
23,C18G A52U U82A,-3.02
24,A19U C35G C57U U90C C96A C132U,≤ -4.2

row,Variant,polymerase ribozyme fitness (log ratio)
1,A19C G88A C95A C99U,≤ -4.2
2,A17U A37U G59C G81A A97G C116G,-1.87
3,A20C A22C A39G G71A C85A G94C,≤ -4.2
4,A19G U55A C85A,-2.52
5,A20C A21U U55A G59C C85A G126U,-0.602
6,A20C A28U A49C U61A G92A A113G C149G,≤ -4.2
7,A19G A20U C36U C96G,-3.67
8,A17U C72U C99U,-1.38
9,A19U A73U,-0.608
10,A19G C69G C76U U82G G88A G141U A150C,≤ -4.2
11,C18G C36A C96U A138U,-4.03
12,C18U C76A U127G A137C,≤ -4.2
13,C18U A23U A26U A30U C87U C96G C108U G136A,≤ -4.2
14,A19G A29G C38A U53A C76U G86U C99U,≤ -4.2
15,C18U A28U C38A A47C C85A U145C,≤ -4.2
16,A19U C43U A73U C79U A106U A107C,≤ -4.2
17,A19U G94C,-0.449
18,C18U U44A G50A A52U G74A A91U C105G A106G C129G,≤ -4.2
19,C18G A21C A49C C93A,≤ -4.2
20,C18G C116U,-0.663
21,C18G A28U A66U G94U C95A,≤ -4.2
22,C18G C36A C95A C96A,≤ -4.2
23,C18G A19U G62C C85U C116A,-1.81
24,A19U U144A,-0.138

row,Variant,polymerase ribozyme fitness (log ratio)
1,C18U G50U C96G U146C,-0.747
2,A17U U55A G84C C95G U148A,-3.23
3,A17U C85U U104G,-1.01
4,C18G A137G U145G,-2.16
5,A17U C87G,-3.75
6,C18U G84A A113G C114U,-2.6
7,C18A U56A G92U C105U C114A U144G,-3.79
8,C18U C85A U144G,0.299
9,A19U G86U,-1.75
10,A19G C51U A52C A60U G65A G84U C85A C87U A98C A138G,≤ -4.2
11,A19G C27A C57A G92U A97G G133A U134G,≤ -4.2
12,C18G C63G G68U G71A U78G C85G G100A G141U,≤ -4.2
13,A19C A29U C54G C108U,≤ -4.2
14,A17U C38A U44A G70C U82C C95U,≤ -4.2
15,A19C G86A,-0.455
16,C18U A40G,-2.32
17,A19U A22C C93U U145A,-1.22
18,A20C A39U G42A A91U G133U,≤ -4.2
19,C18U A20C G34U C76A C79A G88A,≤ -4.2
20,A19C U55G C96A C108G C116G A119C,≤ -4.2
21,C18U A21C G42C C93U,≤ -4.2
22,A19U A39G G74U C85G G128C C129U,≤ -4.2
23,A19U G46A G58C A97U U134A,≤ -4.2
24,A20C A21G G48A C54A A113C A147C,≤ -4.2

row,Variant,polymerase ribozyme fitness (log ratio)
1,A19C G94C U102G,≤ -4.2
2,C18U G34A G48U C75U G94C G141U,≤ -4.2
3,C18U C87U G94C C123A G141A,≤ -4.2
4,A19U A24U A30U U55A C93G C103G A106C C132G U146C,≤ -4.2
5,C18A G86U C103U U145A,-2.81
6,A19C A47C C54A U56A C87A G100C G136A,≤ -4.2
7,C18G A21U A29C A37U C57U C95U U127G U148G,-3.75
8,C18A G58A G86U A119U,-2.06
9,A19U C38U G50A C79A,≤ -4.2
10,A19G A29G G92A C116G,-3.8
11,C18G G50U G88A,-4.08
12,C18U A21U G42A G58C C95U C116U U145C,≤ -4.2
13,C18U A19U A24G G74U C79U,≤ -4.2
14,A17U A29U G74C G124U,≤ -4.2
15,A19C A91U C95A,≤ -4.2
16,A17U C93G U102A A107C G143A,≤ -4.2
17,A19G C54G G70A A73G G92A A106G C116G A137G,≤ -4.2
18,A19G U31G U44A G80A C123G G141C,≤ -4.2
19,C18U U44A G46U A64G U77A A110C G140C U148A,≤ -4.2
20,C18G C35A G46C G58C C95G A113U,≤ -4.2
21,A19U G136C,-3.86
22,A17U A29C A41G G59C C85G,≤ -4.2
23,A19C U53G C85U G92A C103A G141C,≤ -4.2
24,A19U C99U G133C U144G,-2.25

row,Variant,polymerase ribozyme fitness (log ratio)
1,A19G A24G C43A G59A,≤ -4.2
2,C18G G92C C129U A150U,-3.54
3,C18G G80U C116U,-1.62
4,A19G A89C U134G,-3.68
5,A19G U55A C87A A106G G124C G136C C149A A150C,≤ -4.2
6,A19U C57A A60C C93A,≤ -4.2
7,A17U C69U G84C A97G,≤ -4.2
8,A19G G59U C85U C95A,-1.78
9,A19C G65A G83C,-1.84
10,A17U C51G G83A U134C,-3.2
11,C18G G50A C96G A121C,-2.18
12,C18U A26G G58A C87A A97U G133A,≤ -4.2
13,A19U G70A U82A U127G,≤ -4.2
14,A19G C123G,-1.22
15,A17U C51U G83C A91U U139A G140A G141A U148C,≤ -4.2
16,A19U C57G C96G C116G,-0.687
17,A19C C32U C69A U77C C103A G143A U145A,≤ -4.2
18,A19C C32U A49G G59U,≤ -4.2
19,A17U C79G C87U U144G,≤ -4.2
20,C18G C51U C87G C99A U101C C118U G136A,≤ -4.2
21,C18G G50A C76U A115G A119G,-3.18
22,C18G A49C C57G C87A G128U U146G,≤ -4.2
23,C18U C32U A37C C54A C69A G70U A97U A138C C149A,≤ -4.2
24,C18U G58C C85U C87U,-1.92

row,Variant,polymerase ribozyme fitness (log ratio)
1,A19C C51A G86C,-3.75
2,A19G G94U C96U C116A C125U G133U,≤ -4.2
3,A19U A21U G46C C96A U134A,≤ -4.2
4,A17U G94A,-1.24
5,A20C A52G A142G,-2.02
6,A17U C57A G83C C99G,≤ -4.2
7,C18G A26U C35U U78A C99G U135C A147C,≤ -4.2
8,A19U U56A A60G C75U C93A C118U U146A,-3.86
9,A19G A40U G62U A121U G141U,-1.46
10,A19U A41C A73U A91C C93U C129G G140U C149U,≤ -4.2
11,A17U U53G C57U G59C G117U,-0.451
12,A19C A30G C87U G128C G136U,≤ -4.2
13,A17U C85A,-1.17
14,A19G C85G,-2.84
15,A19G C85U,-1.3
16,C18A A89G U90G A97G,≤ -4.2
17,A19G C87A C116A G143C U145G G152U,≤ -4.2
18,A17U A22U U44A G83C C131U,≤ -4.2
19,A19G A122C G136C A142C,-3.74
20,A19U U55A A60G G94U G143U,-3.55
21,A17U C96A,-0.735
22,A19U A26C C38U A89G A98U A107C,≤ -4.2
23,A19U A30U U56A G62C C76U,≤ -4.2
